Results: patent US20160208003A1 (AFFITECH RESEARCH, published 2016)
Where “and” joins values, the source holds several entries; their conditions need not be identical. Equal values may be shown once. Read-outs that look alike come from different tables or passages of the source.

Assays:
[1] = molecular target: T1, human CC chemokine receptor 4 (CCR4) (human, UniProt P51679 1-360); experiment: cell-based or functional assay
T1 sequence (looked up): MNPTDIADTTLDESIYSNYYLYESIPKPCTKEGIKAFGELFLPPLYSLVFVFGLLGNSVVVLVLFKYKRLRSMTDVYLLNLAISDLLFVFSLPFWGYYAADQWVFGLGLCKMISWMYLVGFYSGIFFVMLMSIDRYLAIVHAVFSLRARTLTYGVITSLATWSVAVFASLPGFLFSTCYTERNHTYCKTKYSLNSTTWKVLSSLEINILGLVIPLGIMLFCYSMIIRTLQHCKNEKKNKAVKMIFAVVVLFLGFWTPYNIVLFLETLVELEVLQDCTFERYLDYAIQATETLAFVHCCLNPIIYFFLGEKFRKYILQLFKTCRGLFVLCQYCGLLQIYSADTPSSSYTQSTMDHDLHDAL

[2] = molecular target: T1, human CC chemokine receptor 4 (CCR4); experiment: flow cytometry, IgG titration on CCR4+ DT40 cells; one site-specific binding fit (Prism); IgG titration on CCR4+ DT40 cells
Method: (§1) The IgG forms of antibodies 17G, 9E and KM3060var using various CCR4⁺ cell types were used (see Example 2).
(§2) For the flow cytometry experiments, the cells were harvested from the culture flasks, washed 2 times with PBS, re-suspended in PBS with 0.2% BSA and 0.09% NaN₃ and finally aliquoted 1×10⁵ cells per well into V-shaped 96-well plates (Greiner Bio-One, Frickenhausen, Germany). Cells were centrifuged at 400×g for 5 min and then incubated at 4° C. for 45 min with different antibody dilutions.
(§3) After washing with PBS with 0.2% BSA and 0.09% NaN₃, the cells were stained with 10 μg/ml of RPE-conjugated goat anti-human IgG (AbDSerotec, Düsseldorf, Germany) for 30 minutes at 4° C. The stained cells were washed, re-suspended in 200 μl PBS with 0.2% BSA and 0.09% NaN₃ and transferred to a U-shaped 96-well plate (Corning, Schiphol-Rijk, The Netherlands) for acquisition on EasyCyte flow cytometer (Guava Technologies, Hayward, Calif., USA).

[3] = molecular target: T1, human CC chemokine receptor 4 (CCR4); experiment: flow cytometry, IgG titration on CCR4+ HEK293T cells; one site-specific binding fit (Prism); IgG titration on CCR4+ HEK293T cells
Method: as §1, §2, §3

[4] = molecular target: T1, human CC chemokine receptor 4 (CCR4); experiment: cell-based or functional assay; remark: listed apart in the source
[5] = molecular target: T1, human CC chemokine receptor 4 (CCR4); experiment: flow cytometry, IgG titration on CCRF-CEM cells; one site-specific binding fit (Prism); IgG titration on CCRF-CEM cells (natural CCR4+ line)
Method: as §1, §2, §3

[6] = molecular target: T1, human CC chemokine receptor 4 (CCR4); experiment: cell-based or functional assay; remark: listed apart in the source
[7] = molecular target: T1, human CC chemokine receptor 4 (CCR4); experiment: competition flow cytometry on CCR4-transfected DT40 cells: unlabelled IgG against 6.8 nM biotinylated KM3060var IgG, streptavidin-RPE
Method: To analyze the epitope binding of anti-CCR4 antibodies 17G, 9E and KM3060var, competition experiments were performed using flow cytometry. The binding of biotinylated antibodies to CCR4 transfected DT40-cells was challenged in the presence of different concentrations of non-biotinylated anti-CCR4 antibodies. The CCR4⁺ DT40 cells were harvested from culture flasks, washed 2 times with PBS, re-suspended in PBS with 0.2% BSA and 0.09% NaN₃ and finally aliquoted 1×10⁵ cells per well into V-shaped 96-well plates (Greiner Bio-One, Frickenhausen, Germany). Cells were centrifuged at 400×g for 5 min and then incubated at 4° C. for 3-4 hours with fixed amounts of biotinylated IgG and different concentrations of non-biotinylated antibodies. After washing with PBS with 0.2% BSA and 0.09% NaN₃, the cells were stained with 2.5 μg/ml of Streptavidin—RPE (BD Pharmingen, San Diego, Calif., USA) for 30 minutes at 4° C. The stained cells were washed, re-suspended in 250 μl PBS with 0.2% BSA and 0.09% NaN₃ and transferred to a U-shaped 96-well plate (Corning, Schiphol-Rijk, The Netherlands) for acquisition on EasyCyte flow cytometer (Guava Technologies, Hayward, Calif., USA). The results shown in FIGS. 10 A, B and C illustrate that the 17G and 9E antibodies have epitopes that are identical or at least overlapping.

[8] = molecular target: T1, human CC chemokine receptor 4 (CCR4); experiment: flow cytometry, IgG titration on CCR4+ DT40 cells (2); one site-specific binding fit (Prism); IgG titration on CCR4+ DT40 cells, second experiment, DT40 (2)
Method: as §1, §2, §3

[9] = molecular target: T1, human CC chemokine receptor 4 (CCR4); experiment: competition flow cytometry: unlabelled competitor against a fixed amount of biotinylated MDC; cell line not named on the sheet or in the legend
[10] = molecular target: T1, human CC chemokine receptor 4 (CCR4); experiment: calculated from the IC50; CCRF-CEM cells, competitor biotinylated MDC
Method: (§4) The competition binding assays were performed with biotinylated MDC or biotinylated TARC on DT-40-CCR4+ and CCRF-CEM cells. DT40 and CCRF-CEM cells were cultured as described in Example 2. TARC and MDC were biotinylated using standard procedures. The biotinylation process causes some losses, so the concentrations of biotinylated MDC and TARC recited herein are approximate.
(§5) The cells were harvested from culture flasks, washed 2 times with PBS (400×g, 5 min, 4° C.) and resuspended in PBS containing 0.2% BSA and 0.09% NaN3. 1×10^5 cells per well were aliquoted into V-shaped 96-well plates (Greiner Bio-One, Frikenhausen, Germany). Cells were centrifuged (400×g, 5 min, 4° C.) and resuspended in 50 μl IgG, single chain or unlabeled ligand (1:10 dilution series starting on 100/500/26, 4 μg/ml) mixed with a fixed concentration of biotinylated ligand (10 or 20 nM, see legend to FIG. 24). The cells were incubated for 2 hours at 4° C. and mixed with a pipette every 45 min. The cells were washed three times with 150 μl PBS with 0.2% BSA and 0.09% NaN3 and stained with 3 μg/ml streptavidin PE (BD Biosciences) for 45 minutes at 4° C. […] Apparent binding affinities (KD) were calculated according to the following equation derived from previously described methods (Kipriyanov et al, 1997b; Schodin & Kranz, 1993): […]

[11] = molecular target: T1, human CC chemokine receptor 4 (CCR4); experiment: competition flow cytometry on DT-40-CCR4+ cells: unlabelled competitor against ca. 20 nM biotinylated TARC, with 1 % BSA, streptavidin-PE [b]
Method: as §4, §5

[12] = molecular target: T1, human CC chemokine receptor 4 (CCR4); experiment: flow cytometry competition on DT-40-CCR4+ cells; unlabelled MDC titrated, competitor biotinylated MDC (ca. 10 nM)
Method: as §4, §5

[13] = molecular target: T1, human CC chemokine receptor 4 (CCR4); experiment: calculated from the IC50; DT-40-CCR4+ cells, competitor biotinylated MDC
Method: as §4, §5

[14] = molecular target: T1, human CC chemokine receptor 4 (CCR4); experiment: competition flow cytometry on DT-40-CCR4+ cells: unlabelled competitor against ca. 20 nM biotinylated TARC, without BSA, streptavidin-PE [a]
Method: as §4, §5

[15] = molecular target: T1, human CC chemokine receptor 4 (CCR4); experiment: competition flow cytometry on CCRF-CEM cells: unlabelled competitor against ca. 20 nM biotinylated TARC, without BSA, streptavidin-PE [c]
Method: as §4, §5

[16] = molecular target: T1, human CC chemokine receptor 4 (CCR4); experiment: competition flow cytometry on CCRF-CEM cells: unlabelled competitor against ca. 20 nM biotinylated TARC, with 1 % BSA, streptavidin-PE [d]
Method: as §4, §5

[17] = molecular target: T1, human CC chemokine receptor 4 (CCR4); experiment: flow cytometry competition on CCRF-CEM cells; unlabelled TARC titrated, competitor biotinylated TARC (ca. 20 nM)
Method: as §4, §5

[18] = molecular target: T1, human CC chemokine receptor 4 (CCR4); experiment: competition flow cytometry: unlabelled competitor against a fixed amount of biotinylated TARC; cell line not named on the sheet or in the legend
[19] = molecular target: T1, human CC chemokine receptor 4 (CCR4); experiment: flow cytometry competition on DT-40-CCR4+ cells; unlabelled TARC titrated, competitor biotinylated TARC (ca. 20 nM)
Method: as §4, §5

B1: KM3060var IgG (antibody, V domains shown)
VH: EVQLVESGGDLMKPGGSLKISCAASGFIFSNYGMSWVRQTPDMRLEWVATISSASTYSYYPDSVKGRFTISRDNAENSLYLQMNSLRSEDTGIYYCGRHSDGNFAFGYWGRGTLVTVSS
VL: DVLMTQTPLSLPVSLGDQASISCRSSRNIVHINGDTYLEWYLQRPGQSPKLLIYKVSNRFSGVPDRFSGSGSGTDFTLKISRVEAEDLGVYYCFQGSLLPWTFGGGTRLEIK
notes: Corresponds to KM3060 expressed in a different host; also called comparator KM3060var
In the case of B1, the “ADCC of CCRF-CEM cells, EC50 (mean, N=3)” value [1] is reported as 0.405 µg/mL, the Kd [2] is reported as 3.67 nM and the Kd [3] is reported as 11.4 nM. For the same binder, the “Ca++ flux in CCRF-CEM cells: signal response to MDC stimulation (% of MDC in the absence of IgGs), IgG 10 µg/mL” value [4] was 92%, the “Ca++ flux in CCRF-CEM cells: signal response to TARC stimulation (% of TARC alone), IgG 10 µg/mL” value [4] was 104% and the Kd [5] was 79.8 nM. For the same binder, the “ADCC of CCRF-CEM cells, EC50 (mean, N=3)” value [6] was 0.367 µg/mL, the “IC50 (read off the curve)” value [7] was ~6 nM and the Kd [8] was 4.82 nM.

B2: macrophage-derived chemokine (MDC) (ligand, UniProt O00626 25-93, looked up)
chain: GPYGANMEDSVCCRDYVRYRLPLRVVKHFYWTSDSCPRPGVVLLTFRDKEICADPRVPWVKMILNKLSQ
notes: also called CCL22; biotinylated MDC
With B2 the “IC50 (read off the curve)” value [9] was ~20 nM, the Kd [10] was 0.18 nM and the “IC50 (read off the curve)” value [11] was ~30 nM. The IC50 [12] was 10.8 nM, the Kd [13] was 0.19 nM and the “IC50 (read off the curve)” value [14] was ~30 nM. For the same binder, the “IC50 (read off the curve)” value [15] was ~60 nM and the “IC50 (read off the curve)” value [16] was ~7 nM.

B3: thymus and activation regulated chemokine (TARC) (ligand, UniProt Q92583 24-94, looked up)
chain: ARGTNVGRECCLEYFKGAIPLRKLKTWYQTSEDCSRDAIVFVTVQGRAICSDPNNKRVKNAVKYLQSLERS
notes: also called CCL17; biotinylated TARC
For B3, the IC50 [17] was 43.4 nM and 31.8 nM, the “IC50 (read off the curve)” value [18] was ~0.3 nM and the IC50 [19] was 40.9 nM and 34.6 nM.
